Laboratory results taken from paper PMC6780499, “Characterization, Recombinant Production and Structure-Function Analysis of NvCI, A Picomolar Metallocarboxypeptidase Inhibitor from the Marine Snail Nerita versicolor” (Marine Drugs, 2019).
Each block holds one molecule with its values, some of them ahead of it. No end group written: not given here.

Tests used:
[1] = molecular target: T1, hTAFI (Homo sapiens, UniProt Q96IY4); assay: Ki determination, tight-binding inhibition of metallocarboxypeptidase; type: biochemical; details: tight-binding equation fit; substrate AAFA 0.1mM; enzyme-inhibitor mixture not preincubated; 37 °C; means (n = 3) ± SD
T1 sequence (Q96IY4 115-423): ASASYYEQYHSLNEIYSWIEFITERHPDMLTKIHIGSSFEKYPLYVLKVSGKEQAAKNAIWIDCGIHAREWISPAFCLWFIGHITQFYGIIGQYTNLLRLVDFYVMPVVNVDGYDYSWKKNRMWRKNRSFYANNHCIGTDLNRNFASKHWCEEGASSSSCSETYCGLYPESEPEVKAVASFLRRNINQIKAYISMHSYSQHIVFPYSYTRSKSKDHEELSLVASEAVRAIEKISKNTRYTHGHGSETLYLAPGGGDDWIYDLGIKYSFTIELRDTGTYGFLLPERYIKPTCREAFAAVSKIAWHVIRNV
Protocol: Inhibitory activities against CPA- and CPB-type forms (bovine and human variants of CPA1, CPA2, CPA4, CPB1, and TAFI) were assayed for all extracts, subject to the experimental conditions that enzyme (E), substrate (S) and inhibitor (I) concentrations as well as the [I]/[E] ratio and preincubation time followed the requirements for tight-binding inhibitor assays. Similar approaches were followed to measure the activities of proteases of different catalytic types, like pepsin, papain, trypsin and subtilisin [45, 46, 47, 48]. All assays were performed in triplicate at 25 °C in a multiplexed manner. For 96-well assays an iEMS spectrophotometer reader/dispenser FM (Labsystems, Finland) was used with a final reaction volume of 250 μL. […] The reactions were followed at 5 s intervals for 5 min and recorded as initial velocities. […]
The Ki values of natural and recombinant NvCI against bCPA1, hCPA1, hCPA2, rat CPA3, hCPA4, hCPB1, bTAFI, hTAFI, hCPD and hCPZ were determined by measuring the enzymatic residual activity (Vi/V0 = a) at different inhibitor concentrations and using a fixed enzyme and substrate concentrations as described above, where vi and v0 are the fraction of enzymatic activity in the presence and absence of inhibitor, respectively, in terms of initial velocities. […]

[2] = system: HepG2 cells; assay: Cytotoxicity, XTT assay; type: cell-based, human; details: 72 h incubation, 2 to 250 µg/ml, three independent experiments
Protocol: Cytotoxicity effect of NvCI was tested in a cell culture system using the human hepatocyte cell line HepG2 (American Type Culture Collection (ATCC)). The cells were grown in Dulbecco’s modified Eagle’s medium (DMEM) medium supplemented with 10% (v/v) heat inactivated fetal bovine serum, 2 mM glutamine (Life Technologies Inc.), in a highly humidified atmosphere of 90% air with 10% CO2 at 37 °C. Growth inhibitory effect was measured by the microculture tetrazolium [2,3-bis-(2-methoxy-4-nitro-5-sulfophenyl)-2H-tetrazolium-5-carboxanilide, XTT] assay. Following the addition of different inhibitor concentrations to quadruplicate wells, plates were incubated at 37 °C for 72 h. Aliquots of 20 µl of XTT solution were then added to each well. After 3 h, the color formed was quantitated by a spectrophotometric plate reader (PerkinElmer Victor3 V) at a wavelength of 490 nm. Cell viability was expressed as a percentage of the control level.
Cell viability of HepG2 cells after 72 h incubation with NvCI at various concentrations (2 to 250 µg/ml). Untreated cells were used as controls. Data represent the mean and standard error of the mean (SEM) of three independent experiments.

[3] = molecular target: T2, bCPA1 (Bos taurus (Bovine), UniProt P00730); assay: Ki, residual activity
T2 chain: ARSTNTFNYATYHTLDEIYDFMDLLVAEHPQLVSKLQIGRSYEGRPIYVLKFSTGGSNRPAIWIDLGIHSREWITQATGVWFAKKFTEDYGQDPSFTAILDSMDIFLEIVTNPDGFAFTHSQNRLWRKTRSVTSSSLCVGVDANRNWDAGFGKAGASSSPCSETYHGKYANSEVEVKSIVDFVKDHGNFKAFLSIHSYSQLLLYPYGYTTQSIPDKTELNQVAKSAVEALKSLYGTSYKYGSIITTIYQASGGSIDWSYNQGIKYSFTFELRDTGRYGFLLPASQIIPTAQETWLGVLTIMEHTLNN

[4] = molecular target: T3, hCPA4 (Homo sapiens (Human), UniProt Q9UI42); assay: Ki, residual activity
T3 chain: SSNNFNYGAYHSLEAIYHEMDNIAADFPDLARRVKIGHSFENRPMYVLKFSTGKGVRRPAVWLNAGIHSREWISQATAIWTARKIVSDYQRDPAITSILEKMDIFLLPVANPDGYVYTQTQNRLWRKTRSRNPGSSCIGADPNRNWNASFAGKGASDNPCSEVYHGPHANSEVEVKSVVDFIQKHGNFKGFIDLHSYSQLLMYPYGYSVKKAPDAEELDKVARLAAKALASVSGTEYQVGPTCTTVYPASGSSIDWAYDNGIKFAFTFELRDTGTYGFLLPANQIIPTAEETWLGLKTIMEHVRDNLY

[5] = molecular target: T4, hCPA1 (Homo sapiens (Human), UniProt P15085); assay: Ki, residual activity
T4 chain: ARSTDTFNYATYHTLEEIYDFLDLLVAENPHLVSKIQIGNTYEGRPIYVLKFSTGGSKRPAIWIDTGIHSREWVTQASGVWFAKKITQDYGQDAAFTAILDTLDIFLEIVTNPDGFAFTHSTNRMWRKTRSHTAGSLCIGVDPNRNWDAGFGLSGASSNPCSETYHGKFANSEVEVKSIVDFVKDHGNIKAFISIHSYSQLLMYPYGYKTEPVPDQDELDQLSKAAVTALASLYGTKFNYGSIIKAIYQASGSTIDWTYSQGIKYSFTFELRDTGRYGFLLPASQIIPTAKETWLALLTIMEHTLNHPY

[6] = molecular target: T5, hTAFI (Homo sapiens (Human), UniProt Q96IY4); assay: Ki, residual activity
T5 chain: T1 sequence (Q96IY4 115-423)

Ki [1]: 393 ± 21.9 pM
Molecule: NvCI: 53-residue, three-disulphide proteinaceous metallocarboxypeptidase inhibitor from the marine snail Nerita versicolor; major isoform; UniProt P86912 (FHVPDDRPCINPGRCPLVPDATCTFVCKAADNDFGYECQHVWTFEGQRVGCYA; disulfide (positions not given here); also: three disulphides, pairing not given here; UniProt P86912 1-53, looked up)
cytotoxicity / cell viability [2]: None of the NvCI concentrations assayed exhibited substantial cytotoxicity

Kd [3]: 5.8 pM
Kd [4]: 4.9 pM
Kd [5]: 1.2 pM
Kd [6]: 951 pM
B1: NvCI (protein)
chain: FHVPDDRPCINPGRCPLVPDATCTFVCKAADNDFGYECQHVWTFEGQRVGCYA
modifications: disulfide (positions not given here); not fully specified (bridges); ends not checked
